Experimental data: patent US7700107B2, “Synthetic immunogenic but non-amyloidogenic peptides homologous to amyloid β for induction of an immune response to amyloid β and amyloid deposits” (New York University, priority 2000, dated 2010)

Tests used:
[1] = Thioflavin T fluorometric assay of amyloid fibril formation in vitro; type: physicochemical; details: incubation at 37° C., up to at least 15 days
Experimental: Studies of amyloid fibril formation in vitro can be performed using published protocols from the laboratory of the present inventors (Castaño et al., 1995; Wisniewski et al., 1991; Wisniewski et al., 1993 and Wisniewski et al., 1994). […] In vitro fibrillogenesis was evaluated by a fluorometric assay based on the fluorescence emission by thioflavine T, as previously described by the laboratory of the present inventors (Soto et al., 1998 and Jameson et al., 1998). Thioflavine T binds specifically to amyloid and this binding procedures a shift in its emission spectrum and a fluorescent enhancement proportional to the amount of amyloid formed (LeVine et al. 1993).
(§1) The experiments were performed as described in Example 1.

[2] = test system: human neuroblastoma cell line (SK—N—SH); experiment: Neurotoxicity, MTT assay; type: cell-based; details: for Toxicity to SK—N—SH cells (MTT): 2 and 6 days, vs vehicle; for Aggregates visible under the microscope in culture wells: during the incubation period, 10-100 μM
Experimental: Briefly, cells were plated at 10,000 cells/100 μl culture medium per well in flat bottom, 96 well microtiter plates. The cells were allowed to attach to the plate overnight in an incubator (37° C., 5.0% CO2), and then 10 μl of freshly prepared peptide solution (in nanopure H2O) was added. […] Subsequent steps were as described in the assay protocol.
Data Analysis: The cell culture data was analyzed by one-way ANOVA, followed by a Dunnett's test for post hoc analysis (GraphPad Prism 3.0). An unbiased stereological image analysis system (Bioquant, R&M Biometrics Inc., Nashville, Tenn.) was used to determine the amyloid burden in 6E10 stained brain sections. The data for the amyloid burden and the levels of soluble Aβ within the brain were analyzed by a Student's t-test, two-tailed.
as §1
Data Analysis: The cell culture data was analyzed by one-way ANOVA, followed by a Newman Keuls' test for post hoc analysis (GraphPad Prism 3.0).

[3] = Secondary structure by circular dichroism (CD); type: physicochemical
Experimental: Secondary structure (α-helix, β-sheet, and random coil) of the peptides was evaluated by circular dichroism (CD) as described previously (Soto et al., 1998 and Soto et al., 1996). Results are expressed as molar ellipticity in units of deg cm^2 dmol^−1, and the data was analyzed by the Lincomb and CCA algorithms (Perczel et al., 1992) to obtain the percentages of different types of secondary structure.
The experimental procedure for circular dichroism is performed according to Golabek et al., (1996) and Soto et al. (1996 and 1998) as follows: CD spectra of solutions containing synthetic peptides (1-5 μM in 300 μl of 10 mM sodium phosphate, pH 7.2) is recorded in a Jasco J-720 spectropolarimeter at 25° C. using a 0.1 cm path-length cell with double distilled, deionized water and TFE (spectroscopy grade) being used as solvents. Calibration of the instrument is performed with an aqueous solution of d-(+)-10-camphorsulfonic acid. Spectra is recorded at 1 nm intervals over the wavelength range 180 to 260 nm and buffer spectra obtained under identical conditions is subtracted.

[4] = Solubility of freshly prepared peptide solution (in nanopure H2O); type: physicochemical; details: at 100 μM

Aβ1-30-NH2(DD18,19): modified Aβ1-30, amidated, Asp at positions 18 and 19 (SEQ ID NO:13)
Fibril formation (thioflavin T) ([1]; Example 2, FIG. 5): did not form fibrils

Aβ1-40: amyloid β peptide, sequence 1-40; control peptide
Fibril formation (thioflavin T) ([1]; Example 2, FIG. 5): gradually formed fibrils over time
Toxicity to SK—N—SH cells (MTT) ([2]; Example 1, FIGS. 2A and 2B): toxic
Toxicity to SK—N—SH cells (MTT) ([2]; Example 2, FIGS. 6A and 6B): toxic

Aβ1-42: amyloid β peptide, sequence 1-42; control peptide
alpha (secondary structure by CD) ([3]; Time 0 hr): 9%
beta-sheet (secondary structure by CD) ([3]; Time 0 hr): 36%
random (secondary structure by CD) ([3]; Time 0 hr): 55%
alpha (secondary structure by CD) ([3]; Time 24 hr): 9%
beta-sheet (secondary structure by CD) ([3]; Time 24 hr): 40%
random (secondary structure by CD) ([3]; Time 24 hr): 51%
alpha (secondary structure by CD) ([3]; Time 96 hr): 5%
beta-sheet (secondary structure by CD) ([3]; Time 96 hr): 55%
random (secondary structure by CD) ([3]; Time 96 hr): 40%
Toxicity to SK—N—SH cells (MTT) ([2]; Example 1, FIGS. 2A and 2B): toxic
Aggregates visible under the microscope in culture wells ([2]; Example 1): aggregates were visible
Toxicity to SK—N—SH cells (MTT) ([2]; Example 2, FIGS. 6A and 6B): toxic
Aggregates visible under the microscope in culture wells ([2]; Example 2): aggregates were visible
Solubility [4]: only partially soluble

Aβ1-30-NH2(EE18,19): modified Aβ1-30, amidated, Glu at positions 18 and 19 (SEQ ID NO:12)
Fibril formation (thioflavin T) ([1]; Example 2, FIG. 5): did not form fibrils

Aβ1-30-NH2: first thirty residues of Aβ1-42 (SEQ ID NO:1), amidated at the C-terminus; control peptide
alpha (secondary structure by CD) ([3]; Time 0 hr): 5%
beta-sheet (secondary structure by CD) ([3]; Time 0 hr): 37%
random (secondary structure by CD) ([3]; Time 0 hr): 58%
alpha (secondary structure by CD) ([3]; Time 24 hr): 8%
beta-sheet (secondary structure by CD) ([3]; Time 24 hr): 36%
random (secondary structure by CD) ([3]; Time 24 hr): 56%
alpha (secondary structure by CD) ([3]; Time 96 hr): 7%
beta-sheet (secondary structure by CD) ([3]; Time 96 hr): 49%
random (secondary structure by CD) ([3]; Time 96 hr): 44%
Fibril formation (thioflavin T) ([1]; Example 1, FIG. 1): gradually formed fibrils over time
Fibril formation (thioflavin T) ([1]; Example 2, FIG. 5): gradually formed fibrils over time
